Patent US20250144213A1 (UTC THERAPEUTICS SHANGHAI, published 2025)

T1: CD123-Fc recombinant protein (human, UniProt P26951 19-305)
T1 construct: Soluble staining reagent; also called CD123-Fc protein; not shown: Fc part
T1 sequence (looked up): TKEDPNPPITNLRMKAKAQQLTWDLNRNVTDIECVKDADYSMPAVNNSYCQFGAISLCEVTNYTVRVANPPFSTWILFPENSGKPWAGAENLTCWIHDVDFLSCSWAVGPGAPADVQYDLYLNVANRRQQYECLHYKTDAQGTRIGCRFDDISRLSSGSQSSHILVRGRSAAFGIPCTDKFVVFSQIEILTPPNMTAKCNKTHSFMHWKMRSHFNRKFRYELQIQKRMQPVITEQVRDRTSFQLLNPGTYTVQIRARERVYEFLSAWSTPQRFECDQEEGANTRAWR


target: T1, CD123-Fc recombinant protein; assay: FACS staining of CAR-T cells with CD123-Fc recombinant protein (FIG. 28)

Binder | binding result
anti-CD123 scFv-C6 (scFv, also called C6 scFv) scFv: SYELTQPPSVSVSPGQTARIPCSGADLGDQYVSWYQHQPGQSPLLVIYEDDKRPSGIPERFSGSNSGNTATLTISGTQAMDEADYYCQAWDGNAAIFGGGTKLTVLGGGGSGGGGSGGGGSQVQLVQSGGGSVQPGGSLRLSCAASGFTFTRYSMNWVRQAPGKGLEWVSYISSSSSTIYYADSVKGRFTISRDNAKNSLYLQMNSLRDEDTAVYYCARDGYGGNSDYYGMDVWGQGTTVTVSS | binds
anti-CD123 scFv-C5 (scFv, also called C5 scFv; C5 CAR) scFv: NFMLTQPHSVSESPGKTVTLSCTRSSGSIAGSYVQWYQQRPGSSPTTVIFQDNQRPSGVPDRFSGSIDKSSNSASLTISGLKTEDEADYYCQSYDSNNQVFGGGTKLTVLGGGGSGGGGSGGGGSEVHLVESGGGVVRPGGSLRLSCAASGFTFGDYGMSWVRQAPGKGLEWVSGINWNGGRTGYADSVKGRFTISRDNAKNSLYLQMNSLRAEDTALYYCARARGSGSYFGYMDVWGKGTTVTVSS | binds
anti-CD123 scFv-C1 (scFv, also called C1 scFv) scFv: QSALTQPASVSGSPGQSITISCTGTSSDIGAYNYVSWYQQHPGKAPKLIIYDVSHRPSGVSNRFSGSKSGNTASLTISGLQSEDEADYYCSSDTNNNTLVFGVGTKLTVLGGGGSGGGGSGGGGSEVHLVESGGGVVQPGRSLRLSCAASGFTFSSYGMHWVRQAPGKGLEWVAVIWYDGSNKYYADSVKGRFTISRDNSKNTLYLQMNSLRAEDTAVYYCARDRDGFFLPMYYFDYWGQGTLVTVSS | binds
anti-CD123 scFv-C3 (scFv, also called C3 scFv) scFv: AIQMTQSPSSLSASVGDRVTITCRASQGIGTYLAWFQQKPGKAPKSLIYAASNLQSGVPSKFSGSGSGTDFTLTISNLQPEDFATYYCQQYKGYPLTFGGGTKLEIKGGGGSGGGGSGGGGSQVQLVQSGAEVKKPGSSVKVSCKASGGTFSSYAISWVRQAPGQGLEWMGGIIPIFGTANYAQKFQGRVTITADESTSTAYMELSSLRSEDTAVYYCARDSGWFGPRYYFDYWGQGTLVTVSS | binds
anti-CD123 scFv-C9 (scFv, also called C9 scFv) scFv: QSVLTQPPSASGTPGQRVTISCSGSNSNIENNYVYWYQHLPGTAPKRLIYQNNQRPSGVPDRFSGSKSGTSASLAISGLRSEDEADYYCSAWDDSLSAWVFGGGTELTVLGGGGSGGGGSGGGGSEVHLVESGGGLVQPGRSLRLSCTASGFTFGDYAMNWVRQAPGKGLEWVGFIRSKASGGTTDYAASVKGRFTISRDDSKSIAYLQMNSLKTEDTAVYYCTRALRGYSYGLFDYWGQGTLVTVSS | binds

Next, values leading:

binding result | Binder
binds | anti-CD123 scFv-C4 (scFv, also called C4 scFv) scFv: QSALTQPPSASGTPGQRVTISCSGSSSNIGSNYVNWYQQLPGTAPKLLIYRNNQRPSGVPDRFSGSKSGTSASLAISGLRSEDEADYYCAAWDDSLSGHGVFGTGTELTVLGGGGSGGGGSGGGGSQVQLVQSGPEVKKPGASVKVSCKASGYDFIRYYMNWVRQAPGQGPEWMGAIDPSDGDTTYGQKFQGRVTLTRDTFTSTVYMELSSLRSEDTAVYYCARDWELTNSYGLDVWGQGTTVTVSS
binds | anti-CD123 scFv-C10 (scFv, also called C10 scFv) scFv: SYELTQPPSVSVAPGKTARITCGGNNIGSKSVHWYQQKPGQAPVLVVYDDSDRPSGIPERFSGSNSGNTATLTISRVEAGDEADYYCQVWDSSSDHWVFGGGTKLTVLGGGGSGGGGSGGGGSQVQLVQSGAEVKKPGSSVKVSCKASGGTFSSYAISWVRQAPGQGLEWMGGIIPIFGTANYAQKFQGRVTITADESTSTAYMELSSLRSEDTAVYYCAREKWGYYGDYYYGMDVWGQGTTVTVSS
binds | anti-CD123 scFv-C2 (scFv, also called C2 scFv) scFv: QSVVTQPPSVSAAPGQKVTISCSGSSSNIGNNYVSWYQQFPGTAPKLLIYDNNKRPSGIPDRFSGSKSGTSGTLGITGLQTGDEADYYCVTWDTSLSAGVFGGGTKLTVLGGGGSGGGGSGGGGSQITLKESGGGLVKPGGSLRLSCAASGFTFSNAWMSWVRQAPGKGLEWVGRIKSKTDGGTTDYAAPVKGRFTISRDDSKNTLYLQMNSLKTEDTAVYYCTTDPHGYYYGMDVWGQGTTVTVSS
